In article PMC3487758, “Fibrillin-1 Mutations Causing Weill-Marchesani Syndrome and Acromicric and Geleophysic Dysplasias Disrupt Heparan Sulfate Interactions” (PLoS ONE, 2012):

Target: the molecule itself
Experiment: SEC-MALS; MALLS on each separated gel filtration peak; Wyatt EOS 18-angle light scattering detector, Optilab r-EX refractometer

B1: Fibrillin-1 fragment PF17-1 WMS (Weill-Marchesani syndrome deletion mutant) (domain or fragment)
chain: not shown
notes: human fibrillin-1, fragment PF17-1 (exons 30-43, residues 1238-1807) with the 8 amino acid deletion in TB5 found in patients with WMS; Purifies as a monomer (86%) and a disulfide-linked dimer (14%); the deletion removes Cys 1695; also called WMS mutant
- stoichiometry N: 2
